Measured values as given in US20050123549A1 (IMMUNOGEN, published 2005).

What was measured:
[1] = target: T1, Muc1 mucin carrying the CA6 sialoglycotope (human, UniProt P15941 24-1255, sialylated O-linked carbohydrate carrying the CA6 epitope; positions not stated); assay: flow cytometry on KB cells, apparent Kd
T1 construct: whole, on cells; Target of DS6 on CA6-positive human cell lines (flow cytometry) and in their lysates (dot blots, immunoprecipitation); also called CA6 antigen; DS6 antigen

[2] = target: T1, Muc1 mucin carrying the CA6 …; assay: flow cytometry on T-47D cells, apparent Kd
Procedure: (§1) Human cell lines were obtained from the American Type Culture Collection (ATCC) with the exception of OVCAR5 (Kearse et al., Int. J. Cancer 88(6):866-872 (2000)), OVCAR8 and IGROV1 cells (M. Seiden, Massachusetts General Hospital). All cells were grown in RPMI 1640 supplemented with 4 mM L-glutamine, 50 U/ml penicillin, 50 μg/ml streptomycin (Cambrex Bio Science, Rockland, Me.) and 10% v/v fetal bovine serum (Atlas Biologicals, Fort Collins, Colo.), referred hereafter as culture media. Cells were maintained in a 37° C., 5% CO₂ humidified incubator.
(§2) Cells ([…]) were incubated, on ice for 3-4 h, with serially diluted concentrations of the DS6 antibody prepared in FACS buffer (2% goat serum, RPMI) into 96-well plates. The cells were spun down in a table top centrifuge at 1500 rpm for 5 min at 4° C. After removing the media, the wells were then refilled with 150 μl of FACS buffer. The wash step was then repeated. FITC-labeled goat anti-mouse IgG (Jackson Immunoresearch) was diluted 1:100 to FACS buffer and incubated with the cells for 1 h on ice. The plate was covered in foil to prevent photobleaching of the signal. After two washes, the cells were fixed with 1% formaldehyde and analyzed on a flow cytometer.

[3] = target: T1, Muc1 mucin carrying the CA6 …; assay: flow cytometry on BT549 cells, apparent Kd
[4] = target: T1, Muc1 mucin carrying the CA6 …; assay: flow cytometry on T-47D cells, apparent Kd; remark: listed apart in the source
Procedure: as §2

[5] = target: T1, Muc1 mucin carrying the CA6 …; assay: flow cytometry on OVCAR5 cells, apparent Kd
Procedure: as §1, §2

[6] = target: T1, Muc1 mucin carrying the CA6 …; assay: flow cytometry on Hs766T cells, apparent Kd
[7] = target: T1, Muc1 mucin carrying the CA6 …; assay: flow cytometry on HPAF-II cells, apparent Kd
Procedure: as §1, §2

[8] = target: T1, Muc1 mucin carrying the CA6 …; assay: flow cytometry on TOV-21G cells, apparent Kd
Procedure: as §1, §2

[9] = target: T1, Muc1 mucin carrying the CA6 …; assay: flow cytometry on TOV-21G cells, apparent Kd; remark: listed apart in the source
[10] = target: T1, Muc1 mucin carrying the CA6 …; assay: flow cytometry on MDA-MB-468 cells, apparent Kd
Procedure: as §1, §2

Kd [1]: 1.11 nM
Kd [2]: 3.42 nM
Kd [3]: 1.05 nM
Kd [4]: 3.42 nM
Kd [5]: 1.47 nM
Kd [6]: 2.32 nM
Kd [7]: 2.81 nM
Kd [8]: 0.307 nM
Kd [9]: 0.307 nM
Kd [10]: 0.813 nM
B1: murine DS6 anti-CA6 monoclonal antibody (antibody, IgG1, V domains shown)
VH: QAYLQQSGAELVRSGASVKMSCKASGYTFTSYNMHWVKQTPGQGLEWIGYIYPGNGATNYNQKFKGKATLTADPSSSTAYMQISSLTSEDSAVYFCARGDSVPFAYWGQGTLVTVSA
VL: QIVLTQSPAIMSASPGEKVTITCSAHSSVSFMHWFQQKPGTSPKLWIYSTSSLASGVPARFGGSGSGTSYSLTISRMEAEDAATYYCQQRSSFPLTFGAGTKLELKR
notes: Whole murine monoclonal IgG from the DS6 hybridoma (ATCC PTA-4449); the 3' heavy chain cloning primer was BamIgG1 and the light chain primer was kappa; also called DS6 antibody; muDS6
